Test results reported in patent US20260242735A1 (UNIVERSIT T BASEL, published 2026).

Key:
Assay in all cases: BLI (Octet R8), avidity format: biotinylated CD33 on streptavidin sensor, Refmab #1 as analyte at 300 or 500 nM;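 note: sensorgrams recorded with a 300 s analyte association phase followed by a 900 s dissociation phase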
[1] = target: CD33 variant W22T (recombinant, biotinylated) (human, UniProt P20138 18-259, biotinylated with EZ-Link Sulfo-NHS-LC-Biotin (sites not given))
[2] = target: CD33 variant F44P (recombinant, biotinylated) (human, UniProt P20138 18-259, biotinylated with EZ-Link Sulfo-NHS-LC-Biotin (sites not given))
Sequence of CD33 variant F44P (recombinant, biotinylated) (P20138 other isoform, or with tags, fused parts or gaps F44P F44P): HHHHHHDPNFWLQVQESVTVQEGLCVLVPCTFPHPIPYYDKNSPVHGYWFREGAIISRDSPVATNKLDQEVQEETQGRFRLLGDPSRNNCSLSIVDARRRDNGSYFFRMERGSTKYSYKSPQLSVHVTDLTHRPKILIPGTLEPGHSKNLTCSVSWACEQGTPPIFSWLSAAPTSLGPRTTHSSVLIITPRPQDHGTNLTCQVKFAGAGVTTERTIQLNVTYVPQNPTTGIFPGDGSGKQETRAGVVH

[3] = target: CD33 variant W22E (recombinant, biotinylated) (human, UniProt P20138 18-259, biotinylated with EZ-Link Sulfo-NHS-LC-Biotin (sites not given))
[4] = target: CD33 variant W22K (recombinant, biotinylated) (human, UniProt P20138 18-259, biotinylated with EZ-Link Sulfo-NHS-LC-Biotin (sites not given))
Sequence of CD33 variant W22K (recombinant, biotinylated) (P20138 other isoform, or with tags, fused parts or gaps W22K W22K): as the sequence (P20138 other isoform, or with tags, fused parts or gaps F44P F44P) above, with W11K, P33F counted along it

[5] = target: CD33 variant N20G (recombinant, biotinylated) (human, UniProt P20138 21-259, biotinylated with EZ-Link Sulfo-NHS-LC-Biotin (sites not given))
Sequence of CD33 variant N20G (recombinant, biotinylated) (P20138 other isoform, or with tags, fused parts or gaps N20G N20G): as the sequence (P20138 other isoform, or with tags, fused parts or gaps F44P F44P) above, with N9G, P33F counted along it

[6] = target: CD33 variant N20H (recombinant, biotinylated) (human, UniProt P20138 21-259, biotinylated with EZ-Link Sulfo-NHS-LC-Biotin (sites not given))
Sequence of CD33 variant N20H (recombinant, biotinylated) (P20138 other isoform, or with tags, fused parts or gaps N20H N20H): as the sequence (P20138 other isoform, or with tags, fused parts or gaps F44P F44P) above, with N9H, P33F counted along it

[7] = target: CD33 variant N20V (recombinant, biotinylated) (human, UniProt P20138 21-259, biotinylated with EZ-Link Sulfo-NHS-LC-Biotin (sites not given))
Sequence of CD33 variant N20V (recombinant, biotinylated) (P20138 other isoform, or with tags, fused parts or gaps N20V N20V): as the sequence (P20138 other isoform, or with tags, fused parts or gaps F44P F44P) above, with N9V, P33F counted along it

[8] = target: CD33 variant Y50R (recombinant, biotinylated) (human, UniProt P20138 18-259, biotinylated with EZ-Link Sulfo-NHS-LC-Biotin (sites not given))
Sequence of CD33 variant Y50R (recombinant, biotinylated) (P20138 other isoform, or with tags, fused parts or gaps Y50R Y50R): as the sequence (P20138 other isoform, or with tags, fused parts or gaps F44P F44P) above, with P33F, Y39R counted along it

[9] = target: CD33 variant F21I (recombinant, biotinylated) (human, UniProt P20138 22-259, biotinylated with EZ-Link Sulfo-NHS-LC-Biotin (sites not given))
[10] = target: CD33 variant F21V (recombinant, biotinylated) (human, UniProt P20138 22-259, biotinylated with EZ-Link Sulfo-NHS-LC-Biotin (sites not given))
Sequence of CD33 variant F21V (recombinant, biotinylated) (P20138 other isoform, or with tags, fused parts or gaps F21V F21V): as the sequence (P20138 other isoform, or with tags, fused parts or gaps F44P F44P) above, with F10V, P33F counted along it

[11] = target: CD33 variant N20E (recombinant, biotinylated) (human, UniProt P20138 21-259, biotinylated with EZ-Link Sulfo-NHS-LC-Biotin (sites not given))
Sequence of CD33 variant N20E (recombinant, biotinylated) (P20138 other isoform, or with tags, fused parts or gaps N20E N20E): as the sequence (P20138 other isoform, or with tags, fused parts or gaps F44P F44P) above, with N9E, P33F counted along it

[12] = target: CD33 double variant Y50H_H49H (recombinant, biotinylated) (human, UniProt P20138 18-259, biotinylated with EZ-Link Sulfo-NHS-LC-Biotin (sites not given))
Sequence of CD33 double variant Y50H_H49H (recombinant, biotinylated) (P20138 other isoform, or with tags, fused parts or gaps Y50H H49H Y50H H49H): as the sequence (P20138 other isoform, or with tags, fused parts or gaps F44P F44P) above, with P33F, Y38H, Y39H counted along it

[13] = target: T1, CD33 wild type (recombinant, biotinylated) (human, UniProt P20138 18-259, biotinylated with EZ-Link Sulfo-NHS-LC-Biotin (sites not given))
T1 construct: also called WT; CD33 wt
T1 sequence (P20138 other isoform, or with tags, fused parts or gaps): as the sequence (P20138 other isoform, or with tags, fused parts or gaps F44P F44P) above, with P33F counted along it

[14] = target: CD33 variant Y50K (recombinant, biotinylated) (human, UniProt P20138 18-259, biotinylated with EZ-Link Sulfo-NHS-LC-Biotin (sites not given))
Sequence of CD33 variant Y50K (recombinant, biotinylated) (P20138 other isoform, or with tags, fused parts or gaps Y50K Y50K): as the sequence (P20138 other isoform, or with tags, fused parts or gaps F44P F44P) above, with P33F, Y39K counted along it

[15] = target: CD33 variant F21H (recombinant, biotinylated) (human, UniProt P20138 22-259, biotinylated with EZ-Link Sulfo-NHS-LC-Biotin (sites not given))
Sequence of CD33 variant F21H (recombinant, biotinylated) (P20138 other isoform, or with tags, fused parts or gaps F21H F21H): as the sequence (P20138 other isoform, or with tags, fused parts or gaps F44P F44P) above, with F10H, P33F counted along it

[16] = target: CD33 variant F21M (recombinant, biotinylated) (human, UniProt P20138 22-259, biotinylated with EZ-Link Sulfo-NHS-LC-Biotin (sites not given))
Sequence of CD33 variant F21M (recombinant, biotinylated) (P20138 other isoform, or with tags, fused parts or gaps F21M F21M): as the sequence (P20138 other isoform, or with tags, fused parts or gaps F44P F44P) above, with F10M, P33F counted along it

[17] = target: CD33 variant N20K (recombinant, biotinylated) (human, UniProt P20138 21-259, biotinylated with EZ-Link Sulfo-NHS-LC-Biotin (sites not given))
Sequence of CD33 variant N20K (recombinant, biotinylated) (P20138 other isoform, or with tags, fused parts or gaps N20K N20K): as the sequence (P20138 other isoform, or with tags, fused parts or gaps F44P F44P) above, with N9K, P33F counted along it

[18] = target: CD33 variant Y50D (recombinant, biotinylated) (human, UniProt P20138 18-259, biotinylated with EZ-Link Sulfo-NHS-LC-Biotin (sites not given))
Sequence of CD33 variant Y50D (recombinant, biotinylated) (P20138 other isoform, or with tags, fused parts or gaps Y50D Y50D): as the sequence (P20138 other isoform, or with tags, fused parts or gaps F44P F44P) above, with P33F, Y39D counted along it

[19] = target: CD33 variant F21N (recombinant, biotinylated) (human, UniProt P20138 22-259, biotinylated with EZ-Link Sulfo-NHS-LC-Biotin (sites not given))
Sequence of CD33 variant F21N (recombinant, biotinylated) (P20138 other isoform, or with tags, fused parts or gaps F21N F21N): as the sequence (P20138 other isoform, or with tags, fused parts or gaps F44P F44P) above, with F10N, P33F counted along it

[20] = target: CD33 variant F21S (recombinant, biotinylated) (human, UniProt P20138 22-259, biotinylated with EZ-Link Sulfo-NHS-LC-Biotin (sites not given))
[21] = target: CD33 variant W22D (recombinant, biotinylated) (human, UniProt P20138 18-259, biotinylated with EZ-Link Sulfo-NHS-LC-Biotin (sites not given))
[22] = target: CD33 variant F21L (recombinant, biotinylated) (human, UniProt P20138 22-259, biotinylated with EZ-Link Sulfo-NHS-LC-Biotin (sites not given))
Sequence of CD33 variant F21L (recombinant, biotinylated) (P20138 other isoform, or with tags, fused parts or gaps F21L F21L): as the sequence (P20138 other isoform, or with tags, fused parts or gaps F44P F44P) above, with F10L, P33F counted along it

[23] = target: CD33 variant F21Q (recombinant, biotinylated) (human, UniProt P20138 22-259, biotinylated with EZ-Link Sulfo-NHS-LC-Biotin (sites not given))
Sequence of CD33 variant F21Q (recombinant, biotinylated) (P20138 other isoform, or with tags, fused parts or gaps F21Q F21Q): as the sequence (P20138 other isoform, or with tags, fused parts or gaps F44P F44P) above, with F10Q, P33F counted along it

[24] = target: CD33 variant W22R (recombinant, biotinylated) (human, UniProt P20138 18-259, biotinylated with EZ-Link Sulfo-NHS-LC-Biotin (sites not given))
Sequence of CD33 variant W22R (recombinant, biotinylated) (P20138 other isoform, or with tags, fused parts or gaps W22R W22R): as the sequence (P20138 other isoform, or with tags, fused parts or gaps F44P F44P) above, with W11R, P33F counted along it

B1: Refmab #1 (antibody, human IgG1, V domains shown)
VH: EVQLVQSGAEVKKPGSSVKVSCKASGYTITDSNIHWVRQAPGQSLEWIGYIYPYNGGTDYNQKFKNRATLTVDNPTNTAYMELSSLRSEDTAFYYCVNGNPWLAYWGQGTLVTVSS
VL: DIQLTQSPSTLSASVGDRVTITCRASESLDNYGIRFLTWFQQKPGKAPKLLMYAASNQGSGVPSRFSGSGSGTEFTLTISSLQPDDFATYYCQQTKEVPWSFGQGTKVEVK
notes: also called hP67.6; Absolute Antibody Cat. No. Ab00283-10.0
For B1, which “% WT binding” value [1] is on record?
Its value is 37.5 % WT binding.

And the “% WT binding” value [2]?
Its value is 2 % WT binding.

And the “% WT binding” value [3]?
Its value is 67.5 % WT binding.

What about the “% WT binding” value [4] of the same binder?
Its value is 22.4 % WT binding.

What about the “% WT binding” value [5] of the same binder?
Its value is 9.44 % WT binding.

And the “% WT binding” value [6]?
The value was 32.9 % WT binding.

What about the “% WT binding” value [7] of the same binder?
The value was 29.3 % WT binding.

And the “% WT binding” value [8]?
The value was 108 % WT binding.

What about the “% WT binding” value [9] of the same binder?
The value was 0 % WT binding.

What about the “% WT binding” value [10] of the same binder?
Its value is 5.41 % WT binding.

And the “% WT binding” value [11]?
The value was 5.59 % WT binding.

What about the “% WT binding” value [12] of the same binder?
Its value is 95.8 % WT binding.

What about the “% WT binding” value [13] of the same binder?
Its value is 100 % WT binding.

And the “% WT binding” value [14]?
The value was 86.6 % WT binding.

And the “% WT binding” value [15]?
The value was 10.4 % WT binding.

What about the “% WT binding” value [16] of the same binder?
Its value is 6.62 % WT binding.

What about the “% WT binding” value [17] of the same binder?
Its value is 6.79 % WT binding.

And the “% WT binding” value [18]?
Its value is 131 % WT binding.

And the “% WT binding” value [19]?
The value was 0 % WT binding.

What about the “% WT binding” value [20] of the same binder?
The value was 9.03 % WT binding.

And the “% WT binding” value [21]?
The value was 12.7 % WT binding.

What about the “% WT binding” value [22] of the same binder?
The value was 12.2 % WT binding.

What about the “% WT binding” value [23] of the same binder?
Its value is 0 % WT binding.

What about the “% WT binding” value [24] of the same binder?
The value was 51.9 % WT binding.
